Assay results as given in patent US20200062840A1 (KINDRED BIOSCIENCES, published 2020).

T1: canine IL31 with C-terminal polyHis tag (canine, biotinylated at primary amine groups (NHS-LC-Biotin) or at glycan groups (Biotin-LC-Hydrazide))
T1 construct: also called biotinylated canine IL31; canine IL31 (amine-conjugated-biotin); not shown: C-terminal poly-His tag
T1 chain: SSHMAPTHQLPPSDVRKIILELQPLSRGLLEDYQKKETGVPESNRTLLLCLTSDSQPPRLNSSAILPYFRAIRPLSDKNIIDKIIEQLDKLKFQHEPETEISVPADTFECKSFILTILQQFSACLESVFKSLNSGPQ


Columns and labels:
[1] = target: biotinylated equine IL31 (equine); test: BLI, biotinylated equine IL31 immobilized to the sensor; preliminary measurement; lower end of the range; preliminary measurement
[2] = target: biotinylated equine IL31 (equine); test: BLI, biotinylated equine IL31 immobilized to the sensor; preliminary measurement; upper end of the range; preliminary measurement
[3] = target: T1, canine IL31 with C-terminal polyHis tag; test: BLI (Octet), canine IL31 (glycan-conjugated-biotin) on streptavidin tips, antibody at 100 nM, 2:1 model; canine IL31 (glycan-conjugated-biotin)
Description: (§1) The binding analysis was performed using a biosensor Octet as follows. Briefly, canine IL31 was biotinylated at primary amine groups using EZ-Link™ NHS-LC-Biotin (Thermo Scientific, Catalog No. 21336) or at glycan groups using EZ-Link™ Biotin-LC-Hydrazide (ThermoFisher Scientific, Catalog No. 21340) according to the manufacturer's instructions. The free unreacted biotin was removed from biotinylated IL31 by extensive dialysis. Biotinylated canine IL31 was captured on streptavidin sensor tips. The association of four different concentrations (400, 200, 66.6, and 33 nM) of chimeric and caninized M14 antibody and human and canine IL31 (amine-conjugated-biotin) and the association of 100 nM of caninized M14 antibody and canine IL31 (glycan-conjugated-biotin) was monitored for ninety seconds. Dissociation was monitored for 600 seconds. A buffer only blank curve was subtracted to correct for any drift. The data were fit to a 2:1 binding model using ForteBio™ data analysis software to determine the kₒₙ, koff, and the Kd. The buffer for dilutions and all binding steps was: 20 mM phosphate, 150 mM NaCl, pH 7.2.

[4] = target: T1, canine IL31 with C-terminal polyHis tag; test: BLI (Octet), canine IL31 (amine-conjugated-biotin) on streptavidin tips, antibody at 400, 200, 66.6 and 33 nM, 2:1 model; canine IL31 (amine-conjugated-biotin)
Description: as §1

biotinylated equine IL31 (equine), sequence (chain, as listed by the source limits assumed, form in doubt): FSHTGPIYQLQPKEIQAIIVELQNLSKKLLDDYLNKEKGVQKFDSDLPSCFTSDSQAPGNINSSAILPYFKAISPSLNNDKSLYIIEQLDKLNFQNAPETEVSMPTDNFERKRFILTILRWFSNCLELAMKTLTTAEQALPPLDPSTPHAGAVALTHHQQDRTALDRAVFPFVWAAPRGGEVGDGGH

Row | Kd [1] [nM] | Kd [2] [nM] | Kd [3] [pM] | koff [3] [s⁻¹] | Kd [4] [nM] | Binder
1 | > 10 | < 50 |  |  |  | mouse monoclonal antibody M14 (antibody, V domains shown) VH: EVQLQESGPSLVKPSQTLSLTCSVTGDSITSGYWNWIRKFPGNKLEYMGYISYSGITDYNPSLKSRISITRDTSKNQYYLQLNSVTTEDTATYYCARYGNYGYAMDYWGQGTSVTVSS VL: DIVLTQSPASLAVSLGQRATISCRASESVDTYGNSFMHWYQQKSGQSPKLLIYRASNLESGIPARFGGSGSRTDFTLTIDPVEADDVATYYCQQSYEDPWTFGGGTKLEIK
2 |  |  | < 1 | < 1e-07 | < 0.01 | caninized M14 IgG-B (antibody, V domains shown, canine IgG-B heavy chain and canine light chain constant region; also called caninized M14 antibody) VH: EVQLVESGPSLVKPGGSLRLTCSVTGDSITSGYWNWIRKFPGNKLEYMGYISYSGITDYNPSLKSRITISRDTSKNQYYLQLNSVTTEDTATYYCARYGNYGYAMDYWGQGTLVTVSS VL: DIVMTQSPASLSVSLGQRATISCRASESVDTYGNSFMHWYQQKPGQSPKLLIYRASNLESGIPARFGGSGSGTDFTLTIDPVQADDVATYYCQQSYEDPWTFGGGTKLEIKR
